Results from paper PMC3827234.

Molecular target: hamster integrin αv subunit, endogenous in CHO cells (Chinese hamster (endogenous in CHO))
Test: flow cytometry on cells; CHO cells transiently transfected with the β3 plasmid alone, harvested after 48 h; the chimeric complex of human β3 and hamster αv on the cell surface was stained with FITC anti-αvβ3 (LM609; Figure 2C) or with the monoclonal antibody to β3 (Figure 2D); read-out is the percentage of positive cells

percent of the level of the WTβ3-hamster αv complex (LM609 staining): 78%
Substance: integrin β3 subunit with the Pro189Ser substitution (P163S in the mature protein) (from UniProt P05106 27-788) (receptor)
